Details: Escherichia coli (strain K12), Thermal, DSC, whole UniProt chain shown
[1] = pH 7, 25 °C, potassium phosphate 1 mM, reversible: yes(<50%)
[2] = pH 7, potassium phosphate 1 mM, reversible: yes(<50%)
[3] = pH 9.3, 25 °C, sodium tetraborate 1 mM, reversible: yes(>70%)
[4] = pH 9.3, sodium tetraborate 1 mM, reversible: yes(>70%)

B1: Tryptophan synthase alpha chain wild type, P0A877 (protein)
chain: MERYESLFAQLKERKEGAFVPFVTLGDPGIEQSLKIIDTLIEAGADALELGIPFSDPLADGPTIQNATLRAFAAGVTPAQCFEMLALIRQKHPTIPIGLLMYANLVFNKGIDEFYAQCEKVGVDSVLVADVPVEESAPFRQAALRHNVAPIFICPPNADDDLLRQIASYGRGYTYLLSRAGVTGAENRAALPLNHLVAKLKEYNAAPPLQGFGISAPDQVKAAIDAGAAGAISGSAIVKIIEQHINEPEKMLAALKVFVQPMKAATRS
[1]
  heat capacity change of unfolding: 2.9 kcal/mol/K
  unfolding free energy: 8.4 kcal/mol
[2]
  Tm: 62.4 °C
  heat capacity change of unfolding: 2.9 kcal/mol/K
[3]
  heat capacity change of unfolding: 2.9 kcal/mol/K
  unfolding free energy: 5.8 kcal/mol
[4]
  Tm: 54.3 °C
  heat capacity change of unfolding: 2.9 kcal/mol/K

From FireProtDB (doi:10.1111/j.1399-3011.1982.tb00898.x)
